Experimental data as given in patent publication US20100267609A1 (OKLAHOMA MEDICAL RESEARCH FOUNDATION, published 2010).
Where no end group is shown, it is not given here. [ ]: non-standard residue; d: D form. FAM = 5-(and 6-)carboxyfluorescein; resin = not defined here; Ahx = NCCCCCC(=O)O

How the values were obtained:
[1] = target: T1, memapsin 2 (spontaneously activated promemapsin 2-T1; amino acids 43-456 and 45-456 of SEQ ID NO: 8) (human, UniProt P56817 41-454); test: kinetic inhibition of memapsin 2, fluorogenic substrate
T1 construct: also called Mep2; M2
T1 sequence (P56817 41-454 Q214G): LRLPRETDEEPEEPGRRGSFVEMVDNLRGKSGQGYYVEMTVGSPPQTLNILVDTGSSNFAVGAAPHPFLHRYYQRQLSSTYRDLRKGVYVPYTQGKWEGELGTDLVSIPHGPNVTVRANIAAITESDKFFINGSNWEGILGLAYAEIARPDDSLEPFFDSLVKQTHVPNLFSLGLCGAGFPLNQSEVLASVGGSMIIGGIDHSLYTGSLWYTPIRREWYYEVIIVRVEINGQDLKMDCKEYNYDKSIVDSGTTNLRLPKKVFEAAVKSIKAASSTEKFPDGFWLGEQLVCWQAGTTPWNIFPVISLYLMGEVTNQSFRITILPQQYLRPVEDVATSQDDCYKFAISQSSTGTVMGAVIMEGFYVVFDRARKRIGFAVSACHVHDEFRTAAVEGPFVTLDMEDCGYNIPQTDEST

[2] = target: T1, memapsin 2 (spontaneously activated …); test: bead library probed with 4 nM memapsin 2, OM99-2 wash, anti-memapsin 2 IgG and alkaline phosphatase staining
[3] = target: T1, memapsin 2 (spontaneously activated …); test: inhibition of cleavage of a fluorogenic substrate
[4] = target: T1, memapsin 2 (spontaneously activated …); test: inhibition of cleavage of fluorogenic substrate FS-2
[5] = target: T2, memapsin 1 (amino acid residues 58-461 of SEQ ID NO: 4) (Homo sapiens (Human), UniProt Q9Y5Z0 63-466); test: as above
T2 construct: also called Mep1; M1
T2 sequence: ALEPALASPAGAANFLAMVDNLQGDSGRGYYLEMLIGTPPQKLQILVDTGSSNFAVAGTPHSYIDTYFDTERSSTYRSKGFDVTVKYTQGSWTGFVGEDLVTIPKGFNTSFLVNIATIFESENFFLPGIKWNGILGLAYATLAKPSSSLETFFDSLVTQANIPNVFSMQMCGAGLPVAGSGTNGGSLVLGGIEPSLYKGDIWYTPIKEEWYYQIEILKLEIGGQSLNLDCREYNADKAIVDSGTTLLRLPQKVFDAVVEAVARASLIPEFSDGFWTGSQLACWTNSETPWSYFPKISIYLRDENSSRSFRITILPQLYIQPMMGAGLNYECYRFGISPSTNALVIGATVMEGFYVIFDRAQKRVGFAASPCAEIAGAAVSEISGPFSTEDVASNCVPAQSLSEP

[6] = target: T2, memapsin 1 (amino acid residues 58-461 …); test: ratio of Ki apparent for memapsin 1 to that for memapsin 2

B1: CPI-3: (ELDL*AVEF)-GG-(RRRRRRRRR) (peptide)
peptide: ELDLAVEFGG[dR][dR][dR][dR][dR][dR][dR][dR][dR]
modifications: numbers in words are those of the source; also: Leu4*Ala6: hydroxyethylene isostere -CH(OH)-CH2- replaces the amide bond
Ki [1]: 35 nM

B2: library bead Gly-Ile-Asp-Leu*Ala-Ala-Gln-Phe-Arg-Met-Gly-Gly-resin (peptide)
peptide: GIDLAAQFRMGG-resin
modifications: reading uncertain; also: hydroxyethylene isostere between Leu4 and Ala5, printed as Gly-Ile-Asp-Leu*Ala-Ala-Gln-Phe-Arg-Met-Gly-Gly-resin
binding result [2]: binds

B3: CPI-1: FAM-Ahx-(EVNL*AAEF)-G-([…]) (peptide)
peptide: {FAM-Ahx}-EVNLAAEFGYGRKKRRQRRR
modifications: numbers in words are those of the source; also: Leu4*Ala6: hydroxyethylene isostere -CH(OH)-CH2- replaces the amide bond
notes: OM99-2 joined through Gly to HIV tat residues 47-57; also called Fs[OM99-2]tat
Ki apparent [1]: 39 nM

B4: CPI-2: FAM-Ahx-(ELDL*AVEF)-GG-(RRRRRRRRR) (peptide)
peptide: {FAM-Ahx}-ELDLAVEFGG[dR][dR][dR][dR][dR][dR][dR][dR][dR]
modifications: numbers in words are those of the source; also: Leu4*Ala6: hydroxyethylene isostere -CH(OH)-CH2- replaces the amide bond
notes: OM00-3 joined through Gly-Gly to nine D-arginines
Ki apparent [1]: 58 nM

B5: OM00-3 (ELDL*AVEF; Glu-Leu-Asp-Leu*Ala-Val-Glu-Phe) (peptide)
peptide: ELDLAVEF
modifications: numbers in words are those of the source; also: Leu4*Ala5: hydroxyethylene transition-state isostere -CH(OH)-CH2- replaces the peptide bond
Ki [3]: 0.31 nM | fold improvement of Ki relative to OM99-2 [3]: 5.2 fold | fold lower Ki than OM99-2 [3]: ~5 fold | Ki apparent [4]: 0.31 nM | Ki apparent [5]: 0.18 nM | Ki apparent (M1/M2) [6]: 0.59
